{
  "source": "patent US20240141046A1",
  "about": "(published 2024)",
  "binders": {"B1": {"name": "TY22404 (antibody, IgG1, V domains shown)", "VH": "EVQLVESGGGLVQPGGSLRLSCAASGYSISSGYHWSWIRQAPGKGLEWLARIDWDDDKYYSTSLKSRLTISRDNSKNTLYLQLNSLRAEDTAVYYCARSYVYFDYWGQGTLVTVSS", "VL": "EVGSYPNPSSDCVPYYYACAYSGRSAGGGGSPLGLAGSGGSDIQLTQSPSSLSASVGDRVTITCRASQSVRGRFLAWYQQKPGKAPKLLIYDASNRATGIPSRFSGSGSGTDFTLTISSLQPEDFATYYCQQSSSWPPTFGQGTKVEIKR", "notes": "also called B13197 (peptide name)"}, "B2": {"name": "TY22401 (antibody, V domains shown)", "VH": "B1 VH", "VL": "EVGSYNFVADSCPDHPYPCSASGRSAGGGGSPLGLAGSGGSDIQLTQSPSSLSASVGDRVTITCRASQSVRGRFLAWYQQKPGKAPKLLIYDASNRATGIPSRFSGSGSGTDFTLTISSLQPEDFATYYCQQSSSWPPTFGQGTKVEIKR", "notes": "peptide fused to the N-terminus of the light chain; also called B13189 (peptide name)"}, "B3": {"name": "TY22402 (antibody, IgG1, V domains shown)", "VH": "B1 VH", "VL": "EVGSYIVHHSDCDAFYPYCDSSGRSAGGGGSPLGLAGSGGSDIQLTQSPSSLSASVGDRVTITCRASQSVRGRFLAWYQQKPGKAPKLLIYDASNRATGIPSRFSGSGSGTDFTLTISSLQPEDFATYYCQQSSSWPPTFGQGTKVEIKR", "notes": "also called B13180 (peptide name)"}, "B4": {"name": "TY22563 (antibody, IgG1, V domains shown)", "VH": "B1 VH", "VL": "B3 VL with I6Y, V7S, H8A, H9Y, S10P, D11A, A14S, F15H, D20Q"}, "B5": {"name": "TY22566 (antibody, IgG1, V domains shown)", "VH": "B1 VH", "VL": "B1 VL with S9A"}, "B6": {"name": "TY22775 (antibody, V domains shown)", "VH": "B1 VH", "VL": "EVGHSDCDAFYPYCDSSGRSAGGGGTPLGLAGSGGSDIQLTQSPSSLSASVGDRVTITCRASQSVRGRFLAWYQQKPGKAPKLLIYDASNRATGIPSRFSGSGSGTDFTLTISSLQPEDFATYYCQQSSSWPPTFGQGTKVEIKR"}, "B7": {"name": "TY22776 (antibody, V domains shown)", "VH": "B1 VH", "VL": "B6 VL with H4S, D8V, A9P, F10Y, P12Y, Y13A, D15A, S16Y"}, "B8": {"name": "B15700 (Fab, V domains shown)", "VH": "EVQLVESGGGLVQPGGSLRLSCAASGFTFSGYAIHWVRQAPGKGLEWIGIISPSGGGTKYAQKFQGRVTISRDNSKNTLYLQLNSLRAEDTAVYYCARHPFAYWGQGTLVTVSS", "VL": "DIQLTQSPSSLSASVGDRVTITCRASQSVDFYGISFLDWYQQKPGKAPKLLIYDASNRATGIPSRFSGSGSGTDFTLTISSLQPEDFATYYCQQYVSSPPEYTFGQGTKVEIKR"}, "B9": {"name": "B15709 (Fab, V domains shown)", "VH": "EVQLVESGGGLVQPGGSLRLSCAASGFTFSDYAIHWVRQAPGKGLEWIGIISPSSGSTNYAQKFQGRVTISRDNSKNTLYLQLNSLRAEDTAVYYCARDIHSGSSGYYYGFDVWGQGTLVTVSS", "VL": "B8 VL with Q27E, Y32F, D38A, Q94H, V96T, E101V"}, "B10": {"name": "B15736 (Fab, V domains shown)", "VH": "EVQLVESGGGLVQPGGSLRLSCAASGFTFSDYAIHWVRQAPGKGLEWIGIISPSGGSTKYAQKFQGRVTISRDNSKNTLYLQLNSLRAEDTAVYYCARLGYGYFDVWGQGTLVTVSS", "VL": "DIQLTQSPSSLSASVGDRVTITCRASQSVDFYGISFLHWYQQKPGKAPKLLIYDASSLESGVPSRFSGSGSGTDFTLTISSLQPEDFATYYCVQALQLPLTFGQGTKVEIKR"}, "B11": {"name": "TY22564 (antibody, IgG1, V domains shown)", "VH": "B1 VH", "VL": "B3 VL with I6Y, V7S, H8A, H9Y, S10P, D11A, A14S, F15H, D20N, S22A"}, "B12": {"name": "TY22565 (antibody, IgG1, V domains shown)", "VH": "B1 VH", "VL": "B1 VL with N7Q"}},
  "note": "Numbering of substitutions follows the chain as printed.",
  "data": [
    {"target": "T1, recombinant human CTLA4-Fc (Sino Biological, 11159-H03H) (human, UniProt P16410 36-162)", "T1 construct": "bought; also called human CTLA4 fused with human FC fragment", "T1 sequence (looked up)": "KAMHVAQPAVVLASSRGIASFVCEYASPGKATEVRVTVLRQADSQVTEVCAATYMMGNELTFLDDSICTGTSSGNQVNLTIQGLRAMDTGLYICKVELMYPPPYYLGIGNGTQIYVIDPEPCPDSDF", "test": "ELISA; EC50 over EC50 of TY21580", "method": "(§1) Plates were blocked with PBS supplemented with 3% non-fat milk at 37° C. for 1 hour. After washing, 100 μL, of 3-fold serial dilutions of antibodies were added to each well. After incubation at 37° C. for 1 hour, plates were washed four times, and 100 μL HRP conjugated anti-human IgG (Fab specific) (1:6000 dilution) was added to each well. Plates were incubated at 37° C. for 1 hour, washed four times, and then 50 μL TMB substrate solution was added to each well, and the plate was incubated at room temperature. […] The EC50 was evaluated by fitting the ELISA data using the asymmetrical sigmoidal (five-parameter logistic equation) model of GraphPad Prism 6 software.", "units": {"Masking efficiency": "fold"}, "values": [
      {"binder": "B1", "Masking efficiency": 469}
    ]},
    {"target": "T1, recombinant human CTLA4-Fc (Sino …)", "test": "ELISA, CTLA4-Fc coated, batch 1", "method": "as §1", "values": [
      {"binder": "B2", "LogEC50": -7.62},
      {"binder": "B3", "LogEC50": -6.32},
      {"binder": "B1", "LogEC50": -6.75}
    ]},
    {"target": "T1, recombinant human CTLA4-Fc (Sino …)", "test": "ELISA; EC50 over EC50 of TY21580", "remark": "another data set of the same source", "method": "Plates were incubated at 37° C. for 1 hour, washed four times, and then 50 μL TMB substrate solution was added to each well, and the plate was incubated at room temperature. […] The EC50 was evaluated by fitting the ELISA data using the asymmetrical sigmoidal (five-parameter logistic equation) model of GraphPad Prism 6 software.\nThe purified activatable antibodies were treated with the proteases which recognize the cleavage sequences, and were then tested to determine whether removal of the masking peptide restored their activity. […] The masking efficiency was then measured by ELISA as described above.", "units": {"Masking efficiency": "fold"}, "values": [
      {"binder": "B1", "Masking efficiency": 216}
    ]},
    {"target": "T1, recombinant human CTLA4-Fc (Sino …)", "test": "ELISA; EC50 over EC50 of TY21580", "remark": "another data set of the same source", "method": "as §1", "units": {"Masking efficiency": "fold"}, "values": [
      {"binder": "B3", "Masking efficiency": 554},
      {"binder": "B1", "Masking efficiency": 572}
    ]},
    {"target": "T1, recombinant human CTLA4-Fc (Sino …)", "test": "ELISA; EC50 over EC50 of TY21580", "remark": "another data set of the same source", "method": "as §1", "units": {"Masking efficiency": "fold"}, "values": [
      {"binder": "B3", "Masking efficiency": 243},
      {"binder": "B4", "Masking efficiency": 144},
      {"binder": "B1", "Masking efficiency": 308},
      {"binder": "B5", "Masking efficiency": 489},
      {"binder": "B6", "Masking efficiency": 168},
      {"binder": "B7", "Masking efficiency": 296}
    ]},
    {"target": "T1, recombinant human CTLA4-Fc (Sino …)", "test": "ELISA, Fab captured", "values": [
      {"binder": "B8", "binding result": "binds"},
      {"binder": "B9", "binding result": "binds"},
      {"binder": "B10", "binding result": "binds"}
    ]},
    {"target": "mouse CTLA4 fused with human FC fragment (mouse, UniProt P09793 36-162, limits assumed)", "test": "ELISA, Fab captured", "values": [
      {"binder": "B8", "binding result": "binds"},
      {"binder": "B9", "binding result": "binds"},
      {"binder": "B10", "binding result": "binds"}
    ]},
    {"target": "T1, recombinant human CTLA4-Fc (Sino …)", "test": "ELISA, CTLA4-Fc coated, batch 2", "method": "as §1", "values": [
      {"binder": "B2", "LogEC50": -7.8},
      {"binder": "B3", "LogEC50": -6.9},
      {"binder": "B4", "LogEC50": -7.32},
      {"binder": "B11", "LogEC50": -7.41},
      {"binder": "B1", "LogEC50": -6.89},
      {"binder": "B12", "LogEC50": -6.68},
      {"binder": "B5", "LogEC50": -6.79}
    ]}
  ]
}
